# Experimental data as given in patent US5674712.
# Target: sub-unit alpha of human chorionic gonadotropin (human) (UniProt P01215)
# Experiment: SPR (BIACORE), alpha hCG fixed to the sensor
binder,measurement,value
antibody scFv5E8 specific for sub-unit alpha of human chorionic gonadotropin (scFv) scFv: QVQLQQSGAELMKPGASVKLTASCSGFSIKDTYMHWVKQRPEQGLEWIGRIDPANGNTKYDPKFQGKATITADTSSNTAYLQLSSLTSEDTAVYYCHRFEFAMDYWGQGTTVTVSSGGGGSGGGGSGGGGSDIQGTQSPASLVVSLGQRATISCRASKSVSASGYSYVNWYQQKPGQPPKLLIYLASNLESGVPARFSGSGSGTDFTLNIHPVEEEDAATYYCQHSRELPLTFGAGTKLEISMEELMIEGR,"Kdiss, fold against MAb 5E8",300 times
